Tests used:
[1] = target: gliadin-subtilisin A digest (mixed gliadins, 250 ug/ml, incubated with subtilisin A, 57 ug/ml); assay: R5 sandwich ELISA; gliadins 250 ug/ml with subtilisin A 57 ug/ml, 15 min
[2] = target: gliadin-subtilisin A digest (mixed gliadins, 250 ug/ml, incubated with subtilisin A, 57 ug/ml); assay: R5 sandwich ELISA; gliadins 250 ug/ml with subtilisin A 57 ug/ml, t=0 sample
[3] = target: gliadin-Rmep digest (mixed gliadins, 250 ug/ml, incubated with Rmep, 57 ug/ml); assay: R5 sandwich ELISA; gliadins 250 ug/ml with Rmep 57 ug/ml, t=0 sample
[4] = target: gliadin-subtilisin A digest (mixed gliadins, 250 ug/ml, incubated with subtilisin A, 57 ug/ml); assay: G12 sandwich ELISA; gliadins 250 ug/ml with subtilisin A 57 ug/ml, 2 h
[5] = target: gliadin-Rmep digest (mixed gliadins, 250 ug/ml, incubated with Rmep, 57 ug/ml); assay: G12 sandwich ELISA; gliadins 250 ug/ml with Rmep 57 ug/ml, 2 h
[6] = target: gliadin-subtilisin A digest (mixed gliadins, 250 ug/ml, incubated with subtilisin A, 57 ug/ml); assay: G12 sandwich ELISA; gliadins 250 ug/ml with subtilisin A 57 ug/ml, t=0 sample
[7] = target: gliadin-Rmep digest (mixed gliadins, 250 ug/ml, incubated with Rmep, 57 ug/ml); assay: G12 sandwich ELISA; gliadins 250 ug/ml with Rmep 57 ug/ml, 30 min

| elimination of R5 epitopes (ELISA) [1] [%] | elimination of R5 epitopes (ELISA) [2] [%] | reduction in antibody binding compared to the control [3] [%] | degradation of G12 epitopes (ELISA) [4] [%] | decrease in antibody binding [5] [%] | degradation of G12 epitopes (ELISA) [6] [%] | decrease in antibody binding [7] [%] | Substance |
| --- | --- | --- | --- | --- | --- | --- | --- |
| 100 | 90 | 46 |  |  |  |  | R5 monoclonal antibody (… Gliadin, R-Biopharm) |
|  |  |  | 45 | 85 | 22 | 65 | G12 monoclonal antibody (AgraQuant ELISA Gluten G12, Romer labs) |

Reference: US20190040375A1
